The source of these data is the nanobody polyreactivity screen of Harvey et al. (2022).

This series is described as follows: yeast display, Sf9 membrane polyspecificity reagent, FACS + sequencing; frameworks hold sequencing errors. The procedure, abridged:
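After 36–48 hours of galactose induction, yeast (Saccharomyces cerevisiae BJ5465) displaying a synthetic nanobody library were stained at 4 °C for 1 hour with 10% biotinylated, detergent-solubilized Sf9 membrane reagent. Streptavidin microbeads enriched the stained cells before FACS sorting into low and high (top ~1%) gates on anti-HA and streptavidin fluorescence. Each clone's polyreactivity label reflects its gate of origin.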
On to “QVQLVESGGGLVQAGGNLRLSCAASGFIFTRYAMGWYRQAPGKERELVAAISTSGDRTYYADSVKGRFTISRDNAKNTVYLQMNSLKPEDTAVYYCAVEASRAGAWYEYWGQGTQVTVSS”, for which the “polyreactivity (PSR sort gate)” value is given as “high polyreactivity”.
The entry for “QVQLVESGGGLVQAGGNLRLSCAASGRTFRFNAMGWYRQAPGKERELVAAISFRGGSTYYADSVKGRFTISRDNAKNTVYLQMTSLKPEDTAVYYCAADNPYQGRKFDYWGQGTQVSVSS” is “high polyreactivity”; for “QVQLVESGGGLVQAGGNLRLSCAASGSIFAWYVMGWYRQPPGKERELVAGIDTSGGSTFYADSVKGRFTISRDNAKNTVYLQMNSLKPEDTAVYYCAADTWYRGPWEFDYWGQGTQVTVSS” it is “low polyreactivity”; for “QVQLVESGGGLVQAGGPLRLSCAASGFTFGYYTMGWYRQAPGKERELVAAISWRGGRTYYADSVKGRFTISRDNAKNTVYLQMNSLKPEETAVYYCAAEYTYGWTYRPFVYWGQGTQVTVSS” it is “high polyreactivity”.
As for “QVQLVESGGGLVQAGGPLRVSCAASGIIFDYNAMGWYRQAPGKERELVAAITSTDNTNYADSVKGRFTISRDNAKNTVYLQKNCLKPEDTAVYYCAACSYSRYHYSLYFDFDYWGQGTQVTVSS”, the “polyreactivity (PSR sort gate)” value is given as “low polyreactivity”.
Regarding “QVQLVESGGGLVQAGGRHRLSCAASGSTFSYNAMGWYRQAPGKERELVATISNTDSTNYADSVKGRFTISRDNAKNTVYLQMNSLKPEDTAVYYCAVVSARFDYEYWGQGTQVTVSS”, the “polyreactivity (PSR sort gate)” value is “low polyreactivity”.
The entry for “QVQLVESGGGLVQAGGRHRLSCAASGYIFKYYAMGWYRQAPGKERELVAAISRSGDSTYYADSVKGRFTISRDHAKNTVYLQMNSLKPEDTAVYYCNARYWHGPTGSDYWGQGTQVTVSS” is “high polyreactivity”; for “QVQLVESGGGLVQAGGRLLLSCAASGRTFYRNAMGWYRQAPGKEREFVPSIRTSGGSTYYADSVKGRFTISRDNAKNTVYLQMNSLKPEDTAVYYCKKYRQQGWEFDYWGQGTQVTVSS” it is “high polyreactivity”; for “QVQLVESGGGLVQAGGRLLLSSAASGSTFIWNGMGWYRQAPGKERELVAAITSSSTYYADSVKGRFTISRDNAKNTVYLQMNSLKPEDTAVYYCAATFIQVVVNVQLYDYDYWGQGTQVTVSS” it is “low polyreactivity”.
In the case of “QVQLVESGGGLVQAGGRLRFSCAASGSNFPVYAMGWYRHAPGKERELVADITYTTGSTYYADSVKGRFTISRDNAKNTVYLQMHSLKPEDTGVYYCNARDYTWYLHLGYSTLYWGQGTQVTVSS”, the “polyreactivity (PSR sort gate)” value is recorded as “low polyreactivity”.
Regarding “QVQLVESGGGLVQAGGRLRISCAASGFSFFSNAMGWYRQAPGKERELVAVIDRATSTYYADSVKGRFTISRDNAKNTVYLQMNSLKPEDTAVYYCNADGEEVYDFNYFLSFKGDYWGQGTQVTVSS”, the “polyreactivity (PSR sort gate)” value is recorded as “low polyreactivity”.
Turning to “QVQLVESGGGLVQAGGRLRISCAASGRIFPYNAMGWYRQAPGKERELVAAISFGGGRTYYADSVKGRFTISRDNAKNTVYLQMNSMKPEDTAVYYCNTASPQDIVFRVFYGGDYWGQGTQVTVSS”, the “polyreactivity (PSR sort gate)” value is reported as “low polyreactivity”.
Take “QVQLVESGGGLVQAGGRLRLICAASGFNFKFYALGWYRQAPGKERELVAAITASSGRTYYADSVKGRFTISRDNAKNTVFLQMNSLKPEDTAVYYCAALGITYGRYDYWGQGTQVTVSS”: the “polyreactivity (PSR sort gate)” value is recorded as “high polyreactivity”.
For “QVQLVESGGGLVQAGGRLRLSCAASASTFSDYAMGWYRQAPGKERELVATITSTGDTNYADSVKGRFTISRDNAKNTVYFQMYSLKPVDTAVYYCAAQHKKYGKRGLWNNFGYWGQGTQVTVSS”, the “polyreactivity (PSR sort gate)” value is “low polyreactivity”.
With “QVQLVESGGGLVQAGGRLRLSCAASGFIFDTKAMGWYRKAPGKERELGARISSSAGSTYYADSVKGLFTISRDNAKNTVYLQMNSLKPEDTAVYYCNRTYRLPVYKVDYWGQGTQVTVSS”, the “polyreactivity (PSR sort gate)” value is “low polyreactivity”.
As to “QVQLVESGGGLVQAGGRLRLSCAASGFIFGAYAMGWYRQAPGKERELVAAINWSGGSTYYADSVKGRFTISRDNAKNTVYLQMNSLKPEDTAVYYCNARYNGFYAYPRHDYWGQGTQVTVSS”, the “polyreactivity (PSR sort gate)” value was “low polyreactivity”.
Take “QVQLVESGGGLVQAGGRLRLSCAASGFIFGTYTMGWYRQAPGKERELVAAITNGGSTYADSVKGRFTISRDNAKNTVYLQMISLKPEDTAVYYCAADYRGHSGAWYDYWGLGTQVTVSS”: the “polyreactivity (PSR sort gate)” value is on record as “low polyreactivity”.
Turning to “QVQLVESGGGLVQAGGRLRLSCAASGFIFTPYTMGWYRQSPGTERELVAAITDGSSTYYADSVNGRFTISRDNAKNTVNLQMNSLKPEDTAVYYCNADGKQPYISWLYDYWGQGTQVTVSS”, the “polyreactivity (PSR sort gate)” value is “low polyreactivity”.
Under “QVQLVESGGGLVQAGGRLRLSCAASGFIYENAMGWYRQAPGKERELVAAISYSGGCTYYADSVKGRFTISRDNAKNTVYLQMNSLKPEDTAVYVCAADTQGYDYDYWGQGTQVTVSS” stands “low polyreactivity”; under “QVQLVESGGGLVQAGGRLRLSCAASGFNFRYYAMGWYRQAPGKERELVAASSRSGGGTYYADSVKGRFTISRDTAQNTVYLQMNSLTPEDTAVYYCAADPSLGRGYDYWGQGTQVTVSS”, “high polyreactivity”; under “QVQLVESGGGLVQAGGRLRLSCAASGFTFGYYTMGWYRQAPGKESELVASISRTGGRTYADSVKGRFTISRDNAKNTVFLQMNSLKPEDTAVYYCNRKKYFSYPSDYGYGYWGQGTQVTVSS”, “high polyreactivity”.
As for “QVQLVESGGGLVQAGGRLRLSCAASGFTFRYYALGWYRQAPGKERELVAAISAGGGSTYYADSVKGRFTISRDNAKNNVYLQMHSQKPDDTAVYYCASAGARPGYDYWGQCTQVTVSS”, the “polyreactivity (PSR sort gate)” value was “high polyreactivity”.
Regarding “QVQLVESGGGLVQAGGRLRLSCAASGFTFSGYGMGWSRQAPGKERELVAAISNSGGRTYADSVKGRFTISRDTAQKTVYLQMNSLKPEDTAVYSCAKKPGGFSQASRVDYDYWGQGTQVTVSS”, the “polyreactivity (PSR sort gate)” value is recorded as “low polyreactivity”.
As for “QVQLVESGGGLVQAGGRLRLSCAASGFTFYRYPMGWYRQAPGTERELVAAITWSGGSTYYADSVKGRFTISRDTAMNTVYLQMNSLKPEDTAVYYCAADIYDGGFDYWGQGTQVTVSS”, the “polyreactivity (PSR sort gate)” value is recorded as “low polyreactivity”.
Turning to “QVQLVESGGGLVQAGGRLRLSCAASGFTFYVNAMGWYRQAPGKERELVAAIRGSGGSTYYADSVKGRFTISRVNAKITVYLQMNSLKPEDTAVYYCAKGKARSAQGSSRAYNYWGQGTQVTVSS”, the “polyreactivity (PSR sort gate)” value is recorded as “high polyreactivity”.
As for “QVQLVESGGGLVQAGGRLRLSCAASGFTLDRYAMGWYRQAPGKERELVAAITQSGVSTYYADSVKGLFTISRDNAKNTVYLQKNSLKPEETAVYYCNALLRRTYYRYTWGYGYWGQGTQVTVSS”, the “polyreactivity (PSR sort gate)” value is given as “high polyreactivity”.
Take “QVQLVESGGGLVQAGGRLRLSCAASGIIFSFYTMGWYIQAPGKERELVAAITWSGGSTYYADSVKGRFTISRDNAKNTVYFQMNSLKPEDTSVYYCNARNPWSKRSQGYSWGQGTQVTVSS”: the “polyreactivity (PSR sort gate)” value is listed as “low polyreactivity”.
In the case of “QVQLVESGGGLVQAGGRLRLSCAASGIIRGSYAMGWYRQAPGKERELVAGINSGGGTYYADSVKGRFTISRDNAKNTVYLQMNSLKPEDTAVYYCNARKSSGLSSYDWYSWEYGYWGQGTQVTVSS”, the “polyreactivity (PSR sort gate)” value is reported as “low polyreactivity”.
In the case of “QVQLVESGGGLVQAGGRLRLSCAASGIISRFYAMGWYRQAPGKERELVARISGSGGSTYYADSVKGRFTISRDNAKTTVYLQMNSLKPEDTAVYYFNAKSYRYFGVRRFNYWGQGTQVTVSS”, the “polyreactivity (PSR sort gate)” value is “high polyreactivity”.
With “QVQLVESGGGLVQAGGRLRLSCAASGIRSYRNGMGWYRQAPGKERELVASISKRADSTYYADSVKGRFTISRDNAKITVYLQMNSLKPEETAVYYCYVVSKVIRGLSGDGYWGQGTQGTVSS”, the “polyreactivity (PSR sort gate)” value is “high polyreactivity”.
As to “QVQLVESGGGLVQAGGRLRLSCAASGITCYRYVMGWYRQAPGKERELVAAITSRGGSTSYADSVKGRFTISRDNAQNTVYLQMNSLKPEDTAVYYCAAVYRRDYDYWGQGTQVTVSS”, the “polyreactivity (PSR sort gate)” value is “high polyreactivity”.
“QVQLVESGGGLVQAGGRLRLSCAASGITFNSYAMGWYRQAPGKERELVAAITLTGGTTYYADSVKGRFTISRDNAKNTVYLQKNSLKPEDTAVYYCAAQYWWWSRFEYDSWGQGTQVTVSS”: the “polyreactivity (PSR sort gate)” value is “low polyreactivity”.
On to “QVQLVESGGGLVQAGGRLRLSCAASGITLRRNALVWYRQAPGKERELVARITWRGSTYYAESVKGRFTISRDNAKNTVYLQMNSLKPADTAVYYCAADYRSWQPPTKLPPGASDYWGQGTQVTVSS”, for which the “polyreactivity (PSR sort gate)” value is listed as “low polyreactivity”.
On to “QVQLVESGGGLVQAGGRLRLSCAASGLIFDSYAMGWYRQAPGKERELVAAITYTGGSTYYADSVKGRFTISRDNAKNTVYLQMNSLKPEDTAVYYCAARSQSDRYGYWGQGTQVTVSS”, for which the “polyreactivity (PSR sort gate)” value was “high polyreactivity”.
In the case of “QVQLVESGGGLVQAGGRLRLSCAASGLTFDGYAMGWYRQAPGKERELVAAISWSGNTYYADSVKGRFKISRDNAKNTVYLQMNSLKPEDTAVYYCAVKYYHYGSWGQGTQVTVSS”, the “polyreactivity (PSR sort gate)” value is listed as “high polyreactivity”.
Take “QVQLVESGGGLVQAGGRLRLSCAASGLTLQRYTKGWYRQAPGTERELVAAISRSGGGTYYADSVKGRFTISRDNAKNTVYLEMNSLKPEDTAVYYCAAGWYVYRPSRGYGYWGQGTQVTVSS”: the “polyreactivity (PSR sort gate)” value is reported as “high polyreactivity”.
For the sequence “QVQLVESGGGLVQAGGRLRLSCAASGNIFLDYTLGWYRQAPGKERELVAAISRGGSTYYADSVKGRFTISRDNAKNTVYLQMNSLKPEDTAVYYCNARCWEYFAHNYWGQGTQVTVSS”, the “polyreactivity (PSR sort gate)” value was “low polyreactivity”.
“QVQLVESGGGLVQAGGRLRLSCAASGNIFYYYAMGWYRQAPGKERELVADIRSSGRTNYADSVKGRFTISRDNATNTVYLQMNSLKPADTAVYYCATDKWYSYADKYDYWGQGTQVTVSS”: the “polyreactivity (PSR sort gate)” value is “low polyreactivity”.
In the case of “QVQLVESGGGLVQAGGRLRLSCAASGRIFAEYAMGWYRQAPGKVRELVAAISRRGGRPYYADSVKGRFTISRDNAKKPVYLQMNSLTPDDTAVYYCAADHGDPGGYDYWGQGTQVTVSS”, the “polyreactivity (PSR sort gate)” value is “high polyreactivity”.
On to “QVQLVESGGGLVQAGGRLRLSCAASGRIFDLNAMGWYRQAPGKERELVADINSGGSTYYADSVKGRFTISRDNAKNTVYLQMNSLKPEDTAVYYCDVRRNQHVVQMYYWGQGTQVTVSS”, for which the “polyreactivity (PSR sort gate)” value is given as “low polyreactivity”.
In the case of “QVQLVESGGGLVQAGGRLRLSCAASGRIFGKNVMGWYRQAPGKERELVAAISSGGSTYADSVKGRFTISRDNAKNTFYLQMNSLKPEDTAVYYCNTRPRLYGYRPSQYTYDYWGQGTQVTVSS”, the “polyreactivity (PSR sort gate)” value is on record as “high polyreactivity”.
